From patent US20240327500A1

Biological target: HBV virions (Genotype D) (Hepatitis B virus genotype D)
Test: cell-based or functional assay

HBC34 (antibody) was tested, and the neutralization at 0.03 µg/ml, in-vitro assay was 29%.
